Measured values: patent publication CN116981688A (HELMHOLTZ ZENTRUM MUENCHEN DEUTSCHES FORSCHUNGSZENTRUM FUR …, dated 2023)

T1: 人PRDX4 (存在于癌细胞的细胞表面上) (human) (UniProt Q13162)
T1 sequence: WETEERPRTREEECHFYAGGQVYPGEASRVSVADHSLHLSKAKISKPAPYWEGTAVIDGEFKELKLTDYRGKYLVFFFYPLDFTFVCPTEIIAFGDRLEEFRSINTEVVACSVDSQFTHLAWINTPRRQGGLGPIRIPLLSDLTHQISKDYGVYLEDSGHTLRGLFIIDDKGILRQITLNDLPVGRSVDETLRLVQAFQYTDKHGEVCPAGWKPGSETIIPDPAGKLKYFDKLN

T2: PRDX4 (内源性, 细胞裂解物中) (human, UniProt Q13162 38-271)
T2 construct: Endogenous PRDX4 in RIPA lysates of human cell lines (ES-2 and others), precipitated with 11F2 beads; also called 内源性PRDX4
T2 sequence: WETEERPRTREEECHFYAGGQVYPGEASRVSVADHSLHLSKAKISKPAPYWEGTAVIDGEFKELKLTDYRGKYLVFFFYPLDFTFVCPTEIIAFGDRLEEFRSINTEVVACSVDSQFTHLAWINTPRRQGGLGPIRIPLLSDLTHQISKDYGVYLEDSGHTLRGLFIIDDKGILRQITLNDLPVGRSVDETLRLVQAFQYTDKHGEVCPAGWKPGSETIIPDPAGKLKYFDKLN

B1: 抗体11F2 (antibody, V domains shown)
VH: QVQLQQSGAELVKPGTSVKLSCKASGYTFSTHHMHWIKETTGQGLEWIGIINPGNGGTKYNVKFKGKATLTVDSSSSTAFMQLGSLTPEDSAVYYCARGNPASFDYWGQGVMVTVSS
VL: DIQMTQSPSFLSASVGDRVTINCKASQNIYKYLNWYQQKLGEAPKRLIYNTNNLETDIPSRFSGSGSGTDYTFTISSLQPEDFATYFCLQHSNFPFTFGSGTKLEIKR
notes: Monoclonal antibody detected with goat anti-rat IgG secondary antibody, so rat constant regions; also called PRDX4特异性抗体11F2; PRDX4抗体11F2

What was measured:
[1] = target: T1, 人PRDX4 (存在于癌细胞的细胞表面上) (human); assay: flow cytometry on ES-2 cells, isotype control
[2] = target: T1, 人PRDX4 (存在于癌细胞的细胞表面上) (human); assay: flow cytometry on ES-2w cells transfected with control siRNA
PRDX4 (内源性, 细胞裂解物中) = target: T2, PRDX4 (内源性, 细胞裂解物中); assay: immunoprecipitation with 11F2 beads from ES-2 lysate, western blot
[3] = target: T1, 人PRDX4 (存在于癌细胞的细胞表面上) (human); assay: flow cytometry on ES-2 cells transfected with PRDX4-specific siRNA (population 4BC_KO)
[4] = target: T1, 人PRDX4 (存在于癌细胞的细胞表面上) (human); assay: flow cytometry on ES-2 cells with PRDX4-specific siRNA (4BC_KO) against control siRNA cells

Molecule | 平均值 (mean fluorescence) [1] | 平均值 (mean fluorescence) [2] | binding result (PRDX4 (内源性, 细胞裂解物中)) | 平均值 (mean fluorescence) [3] | percent of 11F2 binding against control siRNA cells [4]
同种型抗体 (antibody) | 159 | – | – | – | –
B1 | – | 1910 | binds | 874 | 50%
